In patent publication US20220031820:

T1: recombinant syndecan-1
T1 sequence (P18827 whole entry, species assumed, looked up): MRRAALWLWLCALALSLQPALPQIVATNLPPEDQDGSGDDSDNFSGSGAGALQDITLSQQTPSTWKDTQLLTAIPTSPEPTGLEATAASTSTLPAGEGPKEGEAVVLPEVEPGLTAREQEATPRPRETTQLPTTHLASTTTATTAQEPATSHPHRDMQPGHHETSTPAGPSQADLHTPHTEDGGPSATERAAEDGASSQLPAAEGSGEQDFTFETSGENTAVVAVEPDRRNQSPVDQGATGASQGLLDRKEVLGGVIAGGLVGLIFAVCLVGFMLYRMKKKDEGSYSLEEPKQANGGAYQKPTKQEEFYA


Tested on: T1, recombinant syndecan-1

Protein	in vitro syndecan-1 cleavage assay (coomassie gel); GzmK 500 nM, syndecan-1 0.7 ug	in vitro syndecan-1 cleavage assay (coomassie gel); GzmA 500 nM, syndecan-1 0.7 ug
recombinant GzmK (in vitro syndecan-1 cleavage assay) (enzyme, UniProt P49863 27-264, looked up, species assumed) Granzyme K: IIGGKEVSPHSRPFMASIQYGGHHVCGGVLIDPQWVLTAAHCQYRFTKGQSPTVVLGAHSLSKNEASKQTLEIKKFIPFSRVTSDPQSNDIMLVKLQTAAKLNKHVKMLHIRSKTSLRSGTKCKVTGWGATDPDSLRPSDTLREVTVTVLSRKLCNSQSYYNGDPFITKDMVCAGDAKGQKDSCKGDSGGPLICKGVFHAIVSGGHECGVATKPGIYTLLTKKYQTWIKSNLVPPHTN	syndecan-1 was cleaved by all three granzymes	
recombinant GzmA (enzyme, UniProt P12544 29-262, looked up, species assumed) Granzyme A: IIGGNEVTPHSRPYMVLLSLDRKTICAGALIAKDWVLTAAHCNLNKRSQVILGAHSITREEPTKQIMLVKKEFPYPCYDPATREGDLKLLQLMEKAKINKYVTILHLPKKGDDVKPGTMCQVAGWGRTHNSASWSDTLREVNITIIDRKVCNDRNHYNFNPVIGMNMVCAGSLRGGRDSCNGDSGSPLLCEGVFRGVTSFGLENKCGDPRGPGVYILLSKKHLNWIIMTIKGAV		syndecan-1 was cleaved by all three granzymes
